The target of experiment [1] is T1, human Claudin18.2 (CLDN18.2) on the surface of CHO-K1-CLDN18.2 cells (human, UniProt P56856-2 1-261).
T1 construct: whole, on cells; Membrane protein overexpressed on CHO-K1 cells; also called hCLDN18.2; antigen on the surface of CHO-K1-CLDN18.2 cell
Put plainly: flow cytometry (FACS) on CHO-K1-CLDN18.2 cells. As for the experimental part:
CHO-K1-CLDN18.2 cells in logarithmic growth phase were collected and transferred to a 1.5 mL EP tube at 3×10⁵ cells/well, and then 1% PBSA was added. The mixture was centrifuged at 1000× g for 5 min, followed by removal of the supernatant. […] 1000 μL of 1% PBSA was added, and the mixture was centrifuged at 1000×g for 5 min, followed by removal of the supernatant and washing twice with 1% PBSA. […] The mixture was resuspended and well mixed, and incubated on ice for 40 min in the dark. 1000 μL of 1% PBSA was added, and the mixture was centrifuged at 1000×g for 5 min, followed by removal of the supernatant and washing twice with 1% PBSA. 200 μL of 1% PBSA was added to resuspend the cell pellets, and the mixture was transferred to a flow cytometry tube for FACSCalibur assay.
Background: A flow cytometer gives signals particle by particle.

For experiment [2], the target named is T1, human Claudin18.2 (CLDN18.2) on the …. Put plainly: cell ELISA on CHO-K1-CLDN18.2 cells. As for the experimental part:
(§1) CHO-K1-CLDN18.2 cells (Chinese hamster ovary cells CHO-K1 overexpressing CLDN18.2, CHO-K1 purchased from Cell Resource Center, Institute of Basic Medical Sciences, Chinese Academy of Medical Sciences, Cat. No.: 3111C0001CCC000004) were plated on a cell plate (Corning, 3599) at 2×10⁴ cells/well and cultured overnight at 5% CO₂ and 37° C., and then the cell plate in which the cells were incubated was washed once with PBST and blocked for 2 h at 37° C. using PBST containing 1% BSA as a blocking solution. After blocking, the plate was washed 3 times with PBST. The ELISA plate containing the test antibodies was incubated at 37° C. for 30 min and then washed 3 times with PBST. […] Then, the plate was incubated at 37° C. for 30 min. After incubation, the plate was washed 4 times with PBST, TMB (Neogen, 308177) was added for color developing in the dark for 5 min, and then a stop solution was added to terminate the chromogenic reaction. The ELISA plate was put into a microplate reader immediately, and the OD value of each well in the ELISA plate was read at 450 nm. The data were analyzed and processed by SoftMax Pro 6.2.1.
(An ELISA detects its analyte on a solid surface through an enzyme-linked reagent.)

Experiment [3] shares this target. Put plainly: cell ELISA on CHO-K1-CLDN18.2 cells. The procedure: as §1
This is another data set of the same source.

For experiment [4] the target is unchanged. Put plainly: flow cytometry (FACS) on CHO-K1-CLDN18.2 cells. This is another data set of the same source.
Experiment [5] shares this target. Put plainly: cell ELISA on CHO-K1-CLDN18.2 cells. The procedure: as §1
The source holds these as a separate data set.

The target is the same in experiment [6]. Put plainly: cell ELISA on CHO-K1-CLDN18.2 cells; antibody 3 µg/mL. As for the experimental part: as §1
Experiment [7] has the same target. The experiment is described as follows: cell ELISA on CHO-K1-CLDN18.2 cells; antibody 0.012 µg/mL. The procedure:
as §1

Experiment [8] has the same target. The experiment is described as follows: cell ELISA on CHO-K1-CLDN18.2 cells; antibody 0.111 µg/mL. The procedure:
as §1

Experiment [9] has the same target. Put plainly: cell ELISA on CHO-K1-CLDN18.2 cells; antibody 0.037 µg/mL. As for the experimental part:
as §1

The target is the same in experiment [10]. The experiment is described as follows: cell ELISA on CHO-K1-CLDN18.2 cells; antibody 0.333 µg/mL. The procedure: as §1
Experiment [11] shares this target. Put plainly: cell ELISA on CHO-K1-CLDN18.2 cells; antibody 1.000 µg/mL. As for the experimental part: as §1
Experiment [12] has the same target. The experiment is described as follows: cell ELISA on CHO-K1-CLDN18.2 cells; antibody 0 µg/mL (background, no antibody). The procedure:
as §1

Experiment [13] shares this target. Put plainly: cell ELISA on CHO-K1-CLDN18.2 cells; antibody 0.004 µg/mL. As for the experimental part:
as §1

The values below come from patent US20250376517A1 (AKESO BIOPHARMA, published 2025).

B1: positive control antibody IMAB362 (antibody, human IgG1, kappa, V domains shown)
VH: QVQLQQPGAELVRPGASVKLSCKASGYTFTSYWINWVKQRPGQGLEWIGNIYPSDSYTNYNQKFKDKATLTVDKSSSTAYMQLSSPTSEDSAVYYCTRSWRGNSFDYWGQGTTLTVSS
VL: DIVMTQSPSSLTVTAGEKVTMSCKSSQSLLNSGNQKNYLTWYQQKPGQPPKLLIYWASTRESGVPDRFTGSGSGTDFTLTISSVQAEDLAVYYCQNDYSYPFTFGSGTKLEIKR
notes: Human-murine chimeric antibody; produced by Akeso Biopharma Inc; also called Claudiximab; zolbetuximab
Usually EC50 stands for the concentration that produces a half-maximal response. For B1, the EC50 in [1] was determined as 0.687 µg/mL; in experiment [2], 0.182 nM; in experiment [3], 0.153 nM; in experiment [4] it was 0.358 µg/mL; in experiment [5], 0.201 nM.

B2: anti-CLDN18.2 antibody 8C5.1 (antibody, V domains shown)
VH: EVQLVESGGGLVKPGGSLKLSCAASGFTFSNSAVSWVRQTPEKRLEWVATITSGVSYTYYLDSVRGRFTISRDNAKNTLYLQMSSLRSEDTAMYYCTRQFKGNALDYWGQGTSVTVSS
VL: DIVMTQSPSSLTVTAGEKVTMSCKSSQSLLNSGNQKNYLTWYQQKPGQPPKLLIYWASTRESGVPDRFTGSGSGTDFTLTINNFQAEDLAVYYCQNDYFYPLTFGAGTKLELK
notes: Murine monoclonal antibody purified from hybridoma LT020 supernatant on protein A; also called monoclonal antibody secreted by hybridoma cell line LT020
B2: the “OD (450 nm)” value is 1.61 OD in [6]; 0.697 OD in experiment [7]; 1.42 OD in [8]; 1.07 OD in experiment [9]; 1.63 OD in experiment [10]; 1.79 OD in experiment [11]. In addition, the “OD (450 nm)” value stood at 0.086 OD in experiment [12] and 0.344 OD in [13]. The EC50 in experiment [1] is 0.214 µg/mL; in experiment [5], 0.153 nM.

B3: humanized anti-human CLDN18.2 antibody 8C5.1H2L2 (antibody, human IgG1, kappa, V domains shown)
VH: EVQLVESGGGLVKPGGSLRLSCAASGFTFSNSAVSWVRQAPGKGLEWVSTITSGVSYTYYADSVKGRFTISRDNAKNSLYLQMNSLRAEDTAVYYCTRQFKGNALDYWGQGTSVTVSS
VL: DIVMTQSPSSLSVSPGERVTISCKSSQSLLNSGNQKNYLTWYQQKPGQPPKLLIYWASTRESGVPDRFSGSGSGTDFTLTISSFQAEDVAVYYCQNDYFYPLTFGAGTKLELKR
For the molecule B3, the EC50 in experiment [3] came out at 0.094 nM; in experiment [4], 0.234 µg/mL.

B4: humanized anti-human CLDN18.2 antibody 8C5.1H3L2 (antibody, human IgG1, kappa, V domains shown)
VH: EVQLVESGGGLVKPGGSLRLSCAASGFTFSNSAVSWVRQAPGKGLEWVSSITSGVSYTYYADSVKGRFTISRDNAKNSLYLQMNSLRAEDTAVYYCTRQFKGNALDYWGQGTSVTVSS
VL: DIVMTQSPSSLSVSPGERVTISCKSSQSLLNSGNQKNYLTWYQQKPGQPPKLLIYWASTRESGVPDRFSGSGSGTDFTLTISSFQAEDVAVYYCQNDYFYPLTFGAGTKLELKR
Take B4: the EC50 in experiment [2] was 0.103 nM; in experiment [4], 0.213 µg/mL.

B5: humanized anti-human CLDN18.2 antibody 8C5.1H1L1 (antibody, human IgG1, kappa, V domains shown)
VH: EVQLVESGGGLVKPGGSLRLSCAASGFTFSNSAVSWVRQAPGKRLEWVATITSGVSYTYYLDSVRGRFTISRDNAKNSLYLQMNSLRAEDTAVYYCTRQFKGNALDYWGQGTSVTVSS
VL: DIVMTQSPSSLSVSPGERVTMSCKSSQSLLNSGNQKNYLTWYQQKPGQPPKLLIYWASTRESGVPDRFSGSGSGTDFTLTINSFQAEDVAVYYCQNDYFYPLTFGAGTKLELKR
For the molecule B5, the concentration for a half-maximal effect (EC50) in experiment [3] was found to be 0.054 nM; in [4], 0.216 µg/mL.

B6: humanized anti-human CLDN18.2 antibody 8C5.1H3L3 (antibody, human IgG1, kappa, V domains shown)
VH: EVQLVESGGGLVKPGGSLRLSCAASGFTFSNSAVSWVRQAPGKGLEWVSSITSGVSYTYYADSVKGRFTISRDNAKNSLYLQMNSLRAEDTAVYYCTRQFKGNALDYWGQGTSVTVSS
VL: DIVMTQSPSSLSVSPGERVTISCKSSQSLLNSGNQKNYLAWYQQKPGQPPKLLIYWASTRESGVPDRFSGSGSGTDFTLTISSLQAEDVAVYYCQNDYFYPLTFGAGTKLELKR
B6 displayed an EC50 in experiment [4] of 0.281 µg/mL.

B7: humanized anti-human CLDN18.2 antibody 8C5.1H2L3 (antibody, human IgG1, kappa, V domains shown)
VH: EVQLVESGGGLVKPGGSLRLSCAASGFTFSNSAVSWVRQAPGKGLEWVSTITSGVSYTYYADSVKGRFTISRDNAKNSLYLQMNSLRAEDTAVYYCTRQFKGNALDYWGQGTSVTVSS
VL: DIVMTQSPSSLSVSPGERVTISCKSSQSLLNSGNQKNYLAWYQQKPGQPPKLLIYWASTRESGVPDRFSGSGSGTDFTLTISSLQAEDVAVYYCQNDYFYPLTFGAGTKLELKR
As for B7, the EC50 was 0.081 nM in experiment [2] and 0.243 µg/mL in [4].

B8: humanized anti-human CLDN18.2 antibody 8C5.1H2L1 (antibody, human IgG1, kappa, V domains shown)
VH: EVQLVESGGGLVKPGGSLRLSCAASGFTFSNSAVSWVRQAPGKGLEWVSTITSGVSYTYYADSVKGRFTISRDNAKNSLYLQMNSLRAEDTAVYYCTRQFKGNALDYWGQGTSVTVSS
VL: DIVMTQSPSSLSVSPGERVTMSCKSSQSLLNSGNQKNYLTWYQQKPGQPPKLLIYWASTRESGVPDRFSGSGSGTDFTLTINSFQAEDVAVYYCQNDYFYPLTFGAGTKLELKR
Regarding B8, the results for the EC50 in experiment [3] and in experiment [4] were 0.091 nM and 0.267 µg/mL, respectively.

B9: humanized anti-human CLDN18.2 antibody 8C5.1H1L2 (antibody, human IgG1, kappa, V domains shown)
VH: EVQLVESGGGLVKPGGSLRLSCAASGFTFSNSAVSWVRQAPGKRLEWVATITSGVSYTYYLDSVRGRFTISRDNAKNSLYLQMNSLRAEDTAVYYCTRQFKGNALDYWGQGTSVTVSS
VL: DIVMTQSPSSLSVSPGERVTISCKSSQSLLNSGNQKNYLTWYQQKPGQPPKLLIYWASTRESGVPDRFSGSGSGTDFTLTISSFQAEDVAVYYCQNDYFYPLTFGAGTKLELKR
For the molecule B9, the values for the EC50 in [3] and in [4] were 0.108 nM and 0.242 µg/mL, respectively.
